Here are results for one substance from publication PMC9359980.

A word on the stoichiometry N: it is the number of molecules, sites or subunits per partner or assembly.

Assay [1] deals with Photozipper (PZ), wild-type (Vaucheria frigida). As to the kind of experiment: high-speed atomic force microscopy (HS-AFM); molecules on mica in Buffer-B (1 mM NaCl, 20 mM Tris-HCl pH 7, 1 mM DTT, 0.2 mM PMSF), room temperature, blue light illumination (450 nm, about 4.3 mW/mm^2); 13-50 nM protein; dimer to monomers.
Assay [2] has the same target. As to the kind of experiment: high-speed atomic force microscopy (HS-AFM); molecules on mica in Buffer-B (1 mM NaCl, 20 mM Tris-HCl pH 7, 1 mM DTT, 0.2 mM PMSF), room temperature, dark conditions (prepared under dim red light); 13-38 nM protein; dimer to monomers.

For the substance “Photozipper (PZ), wild-type (domain or fragment)”, in assay [1], the average dimer lifetime worked out at 86 s; the stoichiometry N was determined as 2; the time constant of the dimerization rate (38 nM PZ, after the start of blue light) came out at 255 s. In assay [2], this substance came in with an average dimer lifetime of 8.1 s and a stoichiometry N of 2.
